Assay results reported in the DeepSol protein solubility set.

Test: soluble on expression in E. coli; label from the status in PepcDB or PDB records

Sequence	soluble on expression in E. coli
MSLQMYAGWRVVVDKNCIKIVSSNLAAQKLIEKQHNARLDTIAAKQQKVELYSVSMATMKELYKLSMQNISGFGTESLYYKEIGSCALDIIRNVPELIKTVSKAKFTNQLYCLTELGGLVMETQQLVGNFVNIVNNAKIPNPLKGEGTAERKSDGYNILDRYERMSLANSIYTNLNEIRYKVDGMMLMAQYATLNDLCFAINPEGWANVMTMRNQVDGLVSDWNGLVATNEGHHHHHH	soluble
MQLALVLSELGEYQVSNQWLLKIIHDLDETMYDCLYFLANNYACLGLFREATQYAEQYLTCESDGEFADDAADLLELLKLDRHDVSEEQEQLITMQERARHLLEQERFAEAIEALEAIVSRYPEFWSAHNNLALAYFYNGDVERAKQKLLEVLKRDPGNLHALCNALVFAYYLHDQEEVAALCETLASVYPFFREHQYKLGATFALVGRFDSAFRWLYRLYKNGFDGDGPFYYWLAYSAYHIGHESLARQVWETLTTLHPEKRGELEHHHHHH	not soluble
MGSDKIHHHHHHHEEADYSQEAHHLVEFGTLLQDDPNVIVPKYHADLSTRDVLAMDFVPSHPIDDLEAADQSERDRVATQLIALMMREVFSFQRVQSDPNFANFRWQPDTGRVVLLDFGATRVLSDNLVNAARQVLRPALDNDLTALANALRELGLLDDALPDQARKTILEMVALANEPMMDPDGFDFGNTSLVTELRTSGMALGQDRSIQSIPPIEVLYLQRKAAGLFLLATRLRARVDLRSLFKS	not soluble
MGLQTYNAKRSFDKTPEPKGTKAEKPGSSFVIQKHDARRLHYDFRLEMDGVLKSWAVTRGPSLDPEDKRLAVHVEDHPLSYGDFEGVIPKGQYGGGTVIVWDRGIWQPIGDAGKGYRKGHLEFELEGEKLKGRWHLVRMHGKPGESRENWLLIKGDDLEHHHHHH	not soluble
SVSEIQLMHNLGKHLNSMERVEWLRKKLQDVHNF	soluble
MSLVFDTHLHTLFSTDSKMNIEEAIDAGEKKNLGIIITEHIDLNYPVKGEFVFDIDKYFKEYNKYRSNKVLLGVEIGMGEEIKEQNKSINDKYEFDYVLGSIHLLNGLDLYEKTIYKSSPKKEVFEMYFKTMLACLRCHEYIDSLAHIDYISRYAAYHDGEIYYNEYSDYIDEVLKFIVDREIVIEINTRRLNKKEVCENLMPIYKRYSELGGRFVTIGSDSHYKDSIGLNFKNALKMAENCNLKPVFFEKRLMKYAEGHHHHHH	soluble
MSLSPEDAIVIILSDDDTIRSALDANIHLQGRRSHLCKSRTDFLISPEADLVGCVVLDARLPDLTASDLTHLICAHAIRCPVIVLTGHGGQAMTVNATKFHVSFIPQPFDLNALAEKIHAAIRTTMEIGRLEGNYRTLTPREREVMKFVAEGLLNKQVAFKLNISEITVKAHRGQVMRKMNARTLPHLVNMAAKLDIGVAFLHEGHHHHHH	soluble
GNIEAALFGLIALYAQTKVIDSIIYGGDAGSMATIVTGNPDGIAAKVIYELDRTATVLPAKGAYSRKDTSVLLCTVRKSQFVKLKRIVYEEDPDAFVMVTETSEVLGLGFRAFKDSL	not soluble
DLYDDDDKDPTLMKISRGLLKTILEAAKSAHPDEFIALLSGSKDVMDELIFLPFVSGSVSAVIHLDMLPIGMKVFGTVHSHPSPSCRPSEEDLSLFTRFGKYHIIVCYPYDENSWKCYNRKGEEVELEVVEKD	soluble
MSLAERLEIMVPSGSYVSFMRNTVTPEFNKLYPEVNLVVSNDEQLDTRMAAGDNPNVYIGVFGYQPAKLAKLGKLAYLDKFPGFAELNERIDPHFLRENFGRTYYIPWNATTQMMIYNKELFAEAGLDPERPPATWDEFLLAAEKISALPPRSDGSKVYGTVFWNDVLSFGSWYWNLLTPMYYNVNQGQYQLLNRYGTDIVFDRPDANMAQFMRTMQQAQRFAPLTMEKSFFSRNIGMWLQFGFGWKATLSSAAERPMVVGQDVAIAPIPVQTKGDIHYSVLDGRAIMIFKDEARKEQLSWALLNLLMRDDINLQANIALGQLPTLKALQDAPYFQSAEAQPFVQQLQHAILSEPFANAMEVANIILANYSKVVLKGEISPEQAVATSAQAARQLLNEHEGHHHHHH	soluble
MGSDKIHHHHHHMSSEIVIRVKNLSKCFNIYDQPRDRLKQAILPRLQRLFGRPQKSYHKEFWALRNADFEIRRGETVGIIGRNGSGKSTLLQLLCGTLTPTHGDIEVTGKVAALLELGAGFNPEFTGRENVFLSGSFYGLTREQVQERFDRIAAFADIGDHIEQPVKTYSSGMFVRLAFAVIAHVDADILVIDEALSVGDAVFTQKCMRFIRSFQEKGTLLFVSHDMQSVVNLCRNAIWLNAGETRMKGTSKNVSEAYLKYTLQEVYGEEAILLSAAPKESTLDAPMFEEAGPPMLDYEAVASVSSNLFDAKGWKTGDAEIEAVQLESLTGENDGILRGGELVRMVVRARAHQPLERPVIGFMVRDRLGQNLFGENTLSLTALDQARVAAGQMFEGEFVFRLPMLPDGQYSVTASVADGDLHNNVQHHLLHDALIINVASSKVRWGLVGVPFERVTLNCI	not soluble
MGLSDWELAAARAAIARGLDEDLRYGPDVTTLATVPASATTTASLVTREAGVVAGLDVALLTLNEVLGTNGYRVLDRVEDGARVPPGEALMTLEAQTRGLLTAERTMLNLVGHLSGIATATAAWVDAVRGTKAKIRDTRKTLPGLRALQKYAVRTGGGVNHRLGLGDAALIKDNHVAAAGSVVDALRAVRNAAPDLPCEVEVDSLEQLDAVLPEKPELILLDNFAVWQTQTAVQRRDSRAPTVMLESSGGLSLQTAATYAETGVDYLAVGALTHSVRVLDIGLDM	soluble
MALATRNLKVIHIKRIENSRSSLIRANHGSKGIIHLILDQAPYHRADKVKEKAKKLVIHLNYLPPYSPNLNPIERLWKVMNEKVRNNRFFNSAKDFRREIERFFTEILPDIGASLGQSINDNFQLEHHHHHH	not soluble
MRYAIMVTGPAYGTQQASSALQFAHALLNEGHELASVFFYREGVYNANLLTSPASDEYDLVRVWQKLNTQHGVALNICVAAALRRGIIDETEAGRLELPSANLQPGFTLSGLGALAEASLTCDRVVQF	soluble
MSAEVLVYRGSLVENRHRVSLALWGPEGLVAYAGDPGRVAYLRSSAKPFQALALYLTGAVERFGLTEEEVALATASHDGTPRHVEVAARFLGKLGLGPEHLVCGVHPPFSREARAALEAQGLAPTPLHHNCSGKHAGMLAAALALGAPAEGYHLPDHPVQRLNLATLEALSGARPGLATDGCSVPTFALSLARAARAFFLLADPGRAPEAYRTPLLRVREAMRRHPDLVAGPGSVDTLLMERLPVVAKRGADGYYGLALLEGPRGPLGVALKVEDGATLAREVAVVALLRALGLDPGKTPWDRPPVRNHRGLEVGHLEARLGLVWV	soluble
MSLRGRTSTLKVAILCFEKDRPKLEALKEILGRSYEVEFVDYSKDVWDDVLQYDCIVAYLASGIVVRGICGRLRGKWKDPAVIVLDKPLKHAVVMLGGHHGGNEVAKKLEEAGLKAVITTAMEFTEGYSVGVGFRKNATADEILEAIAMALEEVGGRMEEIRVISTVDAKRDSAIVEVANRLKRPLIFVRAEEINSMDIRETKAVKIGVKNVAEACAIYASNSGELILPKRVYGGVTVAIAWEGHHHHHH	soluble
GKRSHSMKRNPNAPVTKAGWLFKQASSGVKQWNKRWFVLVDRCLFYYKDEKEESILGSIPLLSFRVAAVQPSDNISRKHTFKAEHAGVRTYFFSAESPEEQEAWIQAMGEAARVQ	soluble
MKVKNNAQLLMPREKMLKFGISALTDVELLALFLRTGTRGKDVLTLAKEMLENFGSLYGLLTSEYEQFSGVHGIGVAKFAQLKGIAELARRYYNVRMREESPLLSPEMTREFLQSQLTGEEREIFMVIFLDSQHRVITHSRLFSGTLNHVEVHPREIIREAIKINASALILAHNHPSGCAEPSKADKLITERIIKSCQFMDLRVLDHIVIGRGEYVSFAERGWI	not soluble
MGSDKIHHHHHHMTRGIYNAAMGMLVDMAKLDRIANDLANVDTAGYKQDREAFRAYLRREVFRQEPNPVESRTKKVPIGPLEYATVLDEVRTDLSQGPVEETDVPYHLAINGEGFFRIEFNGGEYYTRNGEFTVNSEGYIVTNYGGYLLDENGERVRFFDDFTVDEEGYVRDAYGNIVTRIGVYNLENPEKFGNTLFTGENPSPSENFRIMQGYVEKSNVDALKAMVDMISAMRHYELSQRAVTVNDELNGKLINSLASLK	not soluble
MGSDKIHHHHHHMRKLLNTLYVTSPNTYLSLDGENIVILKDDVEALRVPLHNLESIIAFGYTGASPALMGACAKRNISLSFMKSNGKFLGRVVGEVRGNVTLRKAQYRLSDDEATSHRIAKSFILGKVYNSRWVVERATRDHGARLDVEKLKGVCQTLANALRLVENSKDLDQLRGVEGEAAAQYFRVLDDLILQQKEDFYFKCRNKRPPLDNVNAMLSFIYTLLAHDAAAALETVGLDPYVGFLHRDRPGRISLALDLMEELRAVFADRFVLSLINRREVNPSGFTRMENGAVVMDDDTRRDILKAWQSRKQEEIKHPFLQEKMEWGLVPYAQAMLLARFIRGDLDGYPAFMWK	not soluble
MGSDKIHHHHHHMDKVIEMKGITKVFPGTIANDNVNFELTRGETHVLLGENGAGKTTLMNILYGLYHPEKGQIIVNGKSVQFSGPNDAIKSGIGMVHQHFMLVNNFTVAENIVLGMEPKNGIRVDMGKAINNVKELSDKYGFAIEPKAIIEDISVGQQQKVEILKALYRGADVLILDEPTAVLTPQEIDELGDIIENLKKEGKSVILITHKLKEVMKMSDRVTIIRRGKVTGTVNTKDTSIDELAELMVGRKVNLTIAKKESKAGKEVLRVEELKVKDHRDVLVVKGINLVVNSGEILGIAGVDGNGQSEFIEALTGLKKVESGNVILNGKNISGKSAKYITNSGVGHIPEDRHKRGLVLKYSLYENSILGMHHRKPFSRMFNINYKAVRKHCKKLIEEFDIRTPNDEVNAAALSGGNQQKLVVAREISRNPDLLIASQPTRGLDVGAIEYIHKRIVEERDKGKAVLLVSLELDEILALSDRIAVMYDGKIVDVLERKDADEKKLGILMAGGNLDKKESVNTVEER	not soluble
MRGKAWMLTAVALTGLGLAQIRADGSSTVYPITQAVAEEFVTRNPQVRISVAFSGTGAGFQKFCRGETDVQNASRPIRKSELEACQKAGIQFIEIPVAYDALSILVNRQNTWAQCLTTAQLKSIWEPNAKVNYWKDLNPAWPNRRIVLFGAGTDSGTFDYFTEAIMGRAGSIRKDYFPSEDDNVIMRGVTGNPYAMAFVGFAYYEENKDKVKAVAIDHGKGCVLPSRETVLDGTYQPLSRPLFIYVNVKSLDRPEVQAFVDFYLSPAARRAIRSTGYVELPDEAYRIGQGLVARKKTGSFFTDLPPGTPLAKFIEELRKEVQ	soluble
MEMMPNIEELRKMRKNLGISQKDLAKVTGVSQSYIARLEKGTINPTYSKIKAIYEYLTKSSEKASTMVLTCDRIMTRNVVVCRSDESILNALNIMRDKGFSQLPVVNEENKVIGTIAENNINDMLLKGMSIDSLRGLTVRRVMSDVLPQVDRNTPVNIIYQLLKYSNAVLVIEAGNLVGIITKADILKTVAGMI	not soluble
MGSDKIHHHHHHMIQYKRCSEVSIDLVYEAFRDGFSDYIIKMEVSKEDFIKRFFGAEGNSLKHSFVALDGNKSVGVILGGIKDYENIKTMRCGTLAVHPNYRGIGVSQKLFELHKDEAIQNGCKQLFLEVIVGNDRAIRFYNKLGYEKVYDLSYYNLKDMTKIIHKECKGIEVKQLEFPAFKVEIQKWLHFHINWQNDMDYIEKTNHTFYGAYVDNDLKGSICINEQGKISFIFIDKEYRNRGIGSKLLQVARDELNLESLLISFPNNSLLEGFLKKTGFEKNSLAQYEMYVLL	not soluble
MRVYKPEDVPNVQLADSTRLVTDEAGLLSNAQEEVMNGRLRAIRSSHAVEFAVVTLPSIGDAPLEDFTLKLARQWGVGNEKNNNGLLLVLVLDQRRVRFETGYGLEGYLPDGLLSRIIHDRMIPHFRSGNYAEGLSEGVLAVQQVLDGSLEHHHHHH	soluble
